Reference: the supplement of paper PMC10724198
± gives the standard deviation of the averaged measurements.

Key:
Saccharomyces cerevisiae [1] = test: protein stability index of tFT-peptide fusion (C-terminal peptide) (PSI (0-1 scale)); higher = more stable (slower turnover); settings: genetic background: wild type; temperature: 30 C
Saccharomyces cerevisiae [2] = test: as above
Experimental: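 MPS profiling in S. cerevisiae of the tFT-X12 degron library: putative degron peptides plus stable controls, 12 aa, fused to the C-terminus of a sfGFP-mCherry timer. Cells are FACS-sorted into 8 mCherry/sfGFP bins and deep-sequenced. PSI runs from 0 (unstable) to 1 (stable). Backgrounds are wild type, das1Δ and doa10Δ at 30 °C, and wild type, das1Δ, cdc34-1 and cdc53-1 at 37 °C; 2-3 technical replicates each.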

[3] = genetic background: cdc34-1, temperature: 37 C
[4] = genetic background: cdc53-1, temperature: 37 C
[5] = genetic background: das1 deletion, temperature: 30 C
[6] = genetic background: das1 deletion, temperature: 37 C
[7] = genetic background: doa10 deletion, temperature: 30 C
[8] = genetic background: wild type, temperature: 30 C
[9] = genetic background: wild type, temperature: 37 C
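Also: PSI is a weighted mean of sequencing reads over stability bins, variants kept only with over 10 reads, mCherry proximal and sfGFP distal, peptide attached via GGGS linker.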

| Sequence | protein stability index (Saccharomyces cerevisiae [1]) | protein stability index (Saccharomyces cerevisiae [2]; [3]) | protein stability index (Saccharomyces cerevisiae [2]; [4]) | protein stability index (Saccharomyces cerevisiae [2]; [5]) | protein stability index (Saccharomyces cerevisiae [2]; [6]) | protein stability index (Saccharomyces cerevisiae [2]; [7]) | protein stability index (Saccharomyces cerevisiae [2]; [8]) | protein stability index (Saccharomyces cerevisiae [2]; [9]) |
| --- | --- | --- | --- | --- | --- | --- | --- | --- |
| VLVSYAIVILYL | 0.193 ± 0.002 | 0.128 ± 0.0017 | 0.141 ± 0.03 | 0.136 ± 0.043 | 0.293 ± 0.029 | 0.12 ± 0.008 | 0.149 ± 0.019 | 0.268 ± 0.026 |
| VLVVLVVCRRAE | 0.324 ± 0.032 | 0.247 ± 0.039 | 0.412 ± 0.0043 | 0.226 ± 0.028 | 0.438 ± 0.0089 | 0.18 ± 0.041 | 0.226 ± 0.029 | 0.422 ± 0.0083 |
| VLYLQCITSAGH | 0.246 ± 0.023 | 0.1691 ± 0.00061 | 0.203 ± 0.0061 | 0.273 ± 0.025 | 0.195 ± 0.021 | 0.31 ± 0.044 | 0.29 ± 0.037 | 0.178 ± 0.0088 |
| VMRMVWVLGVMC | 0.299 ± 0.011 | 0.281 ± 0.02 | 0.325 ± 0.047 | 0.251 ± 0.037 | 0.405 ± 0.0087 | 0.178 ± 0.0075 | 0.203 ± 0.028 | 0.35 ± 0.0091 |
| VPSMSIVWCRVL | 0.213 ± 0.048 | 0.383 ± 0.036 | 0.446 ± 0.0055 | 0.417 ± 0.02 | 0.511 ± 0.01 | 0.168 ± 0.01 | 0.123 ± 0.018 | 0.12 ± 0.005 |
| VPSPWVFSLFLH | 0.242 ± 0.033 | 0.594 ± 0.059 | 0.689 ± 0.0095 | 0.604 ± 0.025 | 0.73 ± 0.012 | 0.14 ± 0.0025 | 0.139 ± 0.0022 | 0.283 ± 0.016 |
| VQFISLVCLFRF | 0.414 ± 0.013 | 0.339 ± 0.048 | 0.361 ± 0.0089 | 0.341 ± 0.045 | 0.475 ± 0.036 | 0.346 ± 0.033 | 0.303 ± 0.018 | 0.448 ± 0.039 |
| VQWPLLVVGCMG | 0.399 ± 0.028 | 0.271 ± 0.016 | 0.312 ± 0.04 | 0.263 ± 0.029 | 0.401 ± 0.0053 | 0.211 ± 0.015 | 0.251 ± 0.036 | 0.361 ± 0.011 |
| VSFRISAIFVCV | 0.343 ± 0.044 | 0.232 ± 0.034 | 0.293 ± 0.02 | 0.216 ± 0.033 | 0.367 ± 0.0039 | 0.183 ± 0.011 | 0.202 ± 0.028 | 0.322 ± 0.045 |
| VSPATFLFYFFF | 0.497 ± 0.017 | 0.62 ± 0.022 | 0.688 ± 0.011 | 0.544 ± 0.02 | 0.655 ± 0.0092 | 0.37374 ± 0.00014 | 0.396 ± 0.013 | 0.5607 ± 0.00097 |
| VTFCFLFVWFLV | 0.283 ± 0.048 | 0.269 ± 0.004 | 0.378 ± 0.018 | 0.27 ± 0.028 | 0.413 ± 0.0092 | 0.23 ± 0.015 | 0.226 ± 0.012 | 0.345 ± 0.013 |
| VTGFGVAIVCVT | 0.369 ± 0.084 | 0.263 ± 0.021 | 0.292 ± 0.0042 | 0.254 ± 0.044 | 0.3722 ± 0.0024 | 0.191 ± 0.0072 | 0.241 ± 0.033 | 0.364 ± 0.015 |
| VVFFFKFFLLRL | 0.363 ± 0.026 | 0.262 ± 0.0047 | 0.224 ± 0.025 | 0.318 ± 0.031 | 0.407 ± 0.033 | 0.362 ± 0.018 | 0.246 ± 0.035 | 0.325 ± 0.019 |
| VVGLVSIVQVIM | 0.397 ± 0.041 | 0.43875 ± 0.0003 | 0.488 ± 0.024 | 0.308 ± 0.023 | 0.51 ± 0.027 | 0.279 ± 0.011 | 0.31 ± 0.024 | 0.493 ± 0.014 |
| VVGRWGFVVECW | 0.3595 ± 0.00014 | 0.268 ± 0.014 | 0.301 ± 0.024 | 0.254 ± 0.037 | 0.394 ± 0.0095 | 0.227 ± 0.011 | 0.249 ± 0.025 | 0.366 ± 0.0046 |
| VVGVVVCWGRGW | 0.496 ± 0.046 | 0.603 ± 0.015 | 0.666 ± 0.029 | 0.463 ± 0.024 | 0.653 ± 0.0096 | 0.448 ± 0.019 | 0.469 ± 0.015 | 0.6212 ± 0.0058 |
| VVISRVLAIRLL | 0.237 ± 0.0063 | 0.5452 ± 0.00094 | 0.6095 ± 0.0003 | 0.5 ± 0.027 | 0.6173 ± 0.002 | 0.1324 ± 0.0013 | 0.137 ± 0.028 | 0.228 ± 0.042 |
| VVIWWFSAVVSV | 0.148 ± 0.036 | 0.0446 ± 0.0021 | 0.138 ± 0.026 | 0.0727 ± 0.021 | 0.2 ± 0.013 | 0.0495 ± 0.014 | 0.0622 ± 0.026 | 0.165 ± 0.0031 |
| VVPVGLYSVILV | 0.4269 ± 0.0008 | 0.427 ± 0.012 | 0.447 ± 0.028 | 0.322 ± 0.03 | 0.4839 ± 0.0039 | 0.289 ± 0.0065 | 0.306 ± 0.021 | 0.451 ± 0.02 |
